Patent US20210032308A1
Values joined by “and” are separate entries in the source; they are usually repeats but may differ in a detail not shown here. Equal values may be shown once.

Legend:
[1] = target: human CD2 on primary human T cells (human) (UniProt P06729); test: flow cytometry, calculated Kd of competitor antibody; human CD8 memory T cells
[2] = target: human CD2 on primary human T cells (human) (UniProt P06729); test: flow cytometry, calculated Kd of competitor antibody; human CD4 effector memory T cells
[3] = target: human CD2 on primary human T cells (human) (UniProt P06729); test: flow cytometry, calculated Kd of competitor antibody; human CD4 central memory T cells
[4] = target: human CD2 on primary human T cells (human) (UniProt P06729); test: flow cytometry, calculated Kd of competitor antibody; human CD4 naïve T cells
[5] = target: human CD2 on primary human T cells (human) (UniProt P06729); test: flow cytometry, calculated Kd of competitor antibody; human CD8 naïve T cells
[6] = target: human CD2 on primary human T cells (human) (UniProt P06729); test: flow cytometry, calculated Kd of competitor antibody; human CD4 memory T cells
[7] = target: human CD2 on primary human T cells (human) (UniProt P06729); test: flow cytometry, calculated Kd of competitor antibody; expanded human CD4 Treg cells

Sequence of human CD2 on primary human T cells (human) (P06729 25-351): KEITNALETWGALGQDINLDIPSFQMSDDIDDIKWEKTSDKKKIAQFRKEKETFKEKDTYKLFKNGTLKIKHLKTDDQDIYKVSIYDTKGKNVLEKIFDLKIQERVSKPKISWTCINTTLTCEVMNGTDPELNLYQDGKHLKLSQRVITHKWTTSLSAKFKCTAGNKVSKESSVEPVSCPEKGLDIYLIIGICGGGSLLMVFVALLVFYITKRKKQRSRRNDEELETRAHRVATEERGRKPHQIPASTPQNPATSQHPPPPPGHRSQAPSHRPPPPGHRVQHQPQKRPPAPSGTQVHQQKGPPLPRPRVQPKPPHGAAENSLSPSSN

Kd [1]: 11 nM
Kd [2]: 34 nM
Kd [3]: 44.7 nM
Kd [4]: 18.2 nM and 23.8 nM
Kd [5]: 14.8 nM and 31 nM
Kd [6]: 23.7 nM and 42 nM
Kd [7]: 67.9 nM
Substance: anti-CD2-FITC (clone RPA2.10) (antibody)
